Columns and labels:
[1] = biological target: recombinant mouse PrP flexible tail fragment (rmPrP23-110) (Mus musculus, UniProt P04925); test: ELISA; details: both partners purified
[2] = biological target: globular domain fragment of recombinant human PrP (rhPrP121-230) (Homo sapiens, UniProt P04156); test: ELISA; details: both partners purified

B1:  (antibody, V domains shown)
VH: QVQLQQSGTELVMPGASVKMSCKASGYTFTDYWMHWVKQRPGQGLEWIGSIDPSDSYTSHNEKFKGKATLTVDESSSTAYMQLSSLTSEDSAVYFCSRSGYGYAAMEYWGQGTSVTVSS
VL: DIVLTQSPAILSVSPGERVSFSCRASQNIGTSIHWYQQRTNESPRLIIKYASESISGIPSRFSGSGSGTDFTLSINSVESEDIADYYCQQSNTWPYTFGGGTKLELK
notes: also called holo-Y104A; hcY104A IgG holoantibody
binding result [1]: no binding
binding result [2]: binds

— publication PMC9371974 (Nature Structural & Molecular Biology, 2022)
